Results published in article PMC12224988, “The MdHB7L–MdICE1L–MdHOS1 Module Fine‐Tunes Apple Cold Response via CBF‐Dependent and CBF‐Independent Pathways”.

T1: MdHB7L-HIS (UniProt D9ZJ22 1-236)
T1 sequence: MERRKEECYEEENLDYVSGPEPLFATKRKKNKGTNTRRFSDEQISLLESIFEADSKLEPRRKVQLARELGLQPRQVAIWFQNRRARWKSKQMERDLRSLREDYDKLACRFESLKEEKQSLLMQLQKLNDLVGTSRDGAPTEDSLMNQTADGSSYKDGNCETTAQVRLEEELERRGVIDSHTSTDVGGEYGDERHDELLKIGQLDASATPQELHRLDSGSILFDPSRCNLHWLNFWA

B1: pMdPRX53-1-HB (dsDNA)
DNA 1: AATAGACCTACTAATTGGCTCACATATGCA
DNA 2: TGCATATGTGAGCCAATTAGTAGGTCTATT
B2: pMdPRX53-2-HB (dsDNA)
DNA 1: AATACGCCTCTAATTATTAGGTGCTTTTTG
DNA 2: CAAAAAGCACCTAATAATTAGAGGCGTATT
B3: pMdERDL6-7-5-HB (dsDNA)
DNA 1: ATGCAGAATCATTTATCCTTAATTAATCATA
DNA 2: TATGATTAATTAAGGATAAATGATTCTGCAT
B4: pMdPAP2-1-HB (dsDNA)
DNA 1: GATGTGTGTTGTAATTAGTTACACGATTCT
DNA 2: AGAATCGTGTAACTAATTACAACACACATC
B5: pMdRD26-1-HB (dsDNA)
DNA 1: ATGCGACCATTAATTAAACTTACAAAATGT
DNA 2: ACATTTTGTAAGTTTAATTAATGGTCGCAT
B6: pMdERD5-3-HB (dsDNA)
DNA 1: ATTGTTTGTATTTAATTGTAAATAAAAATA
DNA 2: TATTTTTATTTACAATTAAATACAAACAAT
B7: pMdCBF3-HB-P1 (dsDNA)
DNA 1: AAAAATAAAATGATTAGCCTGGCGCATCTA
DNA 2: TAGATGCGCCAGGCTAATCATTTTATTTTT
B8: pMdPRX52-4-HB (dsDNA)
DNA 1: CTTGTCCGTAAATGATTGACATTGGTTTAC
DNA 2: GTAAACCAATGTCAATCATTTACGGACAAG
B9: pMdERDL6-7-2-HB (dsDNA)
DNA 1: CAATATAATTAATTAAAAATTTTAAACTTTTCAACTAATTATGTTAG
DNA 2: CTAACATAATTAGTTGAAAAGTTTAAAATTTTTAATTAATTATATTG
B10: pMdCBF1-HB-P4 (dsDNA)
DNA 1: GAAATTAAGTACTAATTGTTCAGTACCAAG
DNA 2: CTTGGTACTGAACAATTAGTACTTAATTTC
B11: pMdCBF1-HB-P3 (dsDNA)
DNA 1: TAGCAACTAATTAAGTCTTCAATAATTTCTAAAAGCA
DNA 2: TGCTTTTAGAAATTATTGAAGACTTAATTAGTTGCTA
B12: pMdRD26-2-HB (dsDNA)
DNA 1: TCATTAAAGAGATAATTATGAAATAAAATA
DNA 2: TATTTTATTTCATAATTATCTCTTTAATGA
B13: pMdERD5-1-HB (dsDNA)
DNA 1: GAACTGCCTATATAATTAACAAGCTTCAGG
DNA 2: CCTGAAGCTTGTTAATTATATAGGCAGTTC
B14: pMdPRX52-1-HB (dsDNA)
DNA 1: GTTAAACCAATTTAATTAATAAGATCTTAT
DNA 2: ATAAGATCTTATTAATTAAATTGGTTTAAC
B15: pMdERDL6-7-4-HB (dsDNA)
DNA 1: CTTAAAATTTCTTAATTATCAGTTAACACC
DNA 2: GGTGTTAACTGATAATTAAGAAATTTTAAG
B16: pMdPRX52-2-HB (dsDNA)
DNA 1: TATTAAATCAGAATTATTAAGAGAAAATAA
DNA 2: TTATTTTCTCTTAATAATTCTGATTTAATA
B17: pMdPAP2-2-HB (dsDNA)
DNA 1: GCACCAAGTCCAATTATTGAGCAATTAATG
DNA 2: CATTAATTGCTCAATAATTGGACTTGGTGC
B18: pMdERD5-2-HB (dsDNA)
DNA 1: TCTTTTTAGACCCTAATTATAGGGAAAGGG
DNA 2: CCCTTTCCCTATAATTAGGGTCTAAAAAGA
B19: pMdPRX53-3-HB (dsDNA)
DNA 1: TAAGTCTTTGTGTAATTAACAAAACAACGA
DNA 2: TCGTTGTTTTGTTAATTACACAAAGACTTA
B20: pMdERDL6-7-1-HB (dsDNA)
DNA 1: GCATTTTATAATTGTTTATTATTTTTAATTAGAAAAAATC
DNA 2: GATTTTTTCTAATTAAAAATAATAAACAATTATAAAATGC
B21: pMdRD26-3-HB (dsDNA)
DNA 1: ATAGAAATAAATAATTGACGAGATAAATAG
DNA 2: CTATTTATCTCGTCAATTATTTATTTCTAT
B22: pMdCBF1-HB-P2 (dsDNA)
DNA 1: CTATTATTATTAATTACTTTTTTCACATAA
DNA 2: TTATGTGAAAAAAGTAATTAATAATAATAG
B23: pMdRD26-4-HB (dsDNA)
DNA 1: ATAAATATAATTACCTGTGAGTTGATTATA
DNA 2: TATAATCAACTCACAGGTAATTATATTTAT
B24: pMdPRX52-5-HB (dsDNA)
DNA 1: AATTAAGCTAAATCATTAACAATTTTCATT
DNA 2: AATGAAAATTGTTAATGATTTAGCTTAATT
B25: pMdERD5-4-HB (dsDNA)
DNA 1: TTAAGACTAGCTTAATTGCGAGGATATCAT
DNA 2: ATGATATCCTCGCAATTAAGCTAGTCTTAA
B26: pMdERDL6-7-3-HB (dsDNA)
DNA 1: CTTCATATCTTAATCATTCATCATGTATCG
DNA 2: CGATACATGATGAATGATTAAGATATGAAG
B27: pMdPRX52-3-HB (dsDNA)
DNA 1: CAAATGTAATTAGCATTAATCCCAACTAACTATAAAAATGATTATCCTTG
DNA 2: CAAGGATAATCATTTTTATAGTTAGTTGGGATTAATGCTAATTACATTTG
B28: pMdCBF3-HB-P2 (dsDNA)
DNA 1: CACTGTCGATTTAAATCATTCATACAGAAA
DNA 2: TTTCTGTATGAATGATTTAAATCGACAGTG
B29: pMdERDL6-1-1-HB (dsDNA)
DNA 1: TTAGGATAGTAATTGGTAACTCTCGACTCC
DNA 2: GGAGTCGAGAGTTACCAATTACTATCCTAA
B30: pMdCBF1-HB-P1 (dsDNA)
DNA 1: AAAGCATAGAAATAATTCCAAAACTATTTT
DNA 2: AAAATAGTTTTGGAATTATTTCTATGCTTT

biological target: T1, MdHB7L-HIS; test: EMSA; Beyotime Chemiluminescent EMSA Kit per manufacturer; buffer, salt, pH and temperature not given; details: protein: recombinant; tags: His (pET28a; BamHI/SalI site primers, no stop codon in reverse primer); chain copies: 2; label: biotin; blunt

| Binder | binding result |
| --- | --- |
| B1 | binds |
| B2 | binds |
| B3 | binds |
| B4 | no binding |
| B5 | binds |
| B6 | binds |
| B7 | binds |
| B8 | binds |
| B9 | binds |
| B10 | binds |
| B11 | binds |
| B12 | binds |
| B13 | binds |
| B14 | binds |
| B15 | binds |
| B16 | binds |
| B17 | binds |
| B18 | binds |
| B19 | no binding |
| B20 | binds |
| B21 | binds |
| B22 | binds |
| B23 | no binding |
| B24 | binds |
| B25 | binds |
| B26 | binds |
| B27 | binds |
| B28 | binds |
| B29 | binds |
| B30 | binds |
